Results reported in patent publication US20220289806A1 (CYTIMM THERAPEUTICS, published 2022).

Columns and labels:
[1] = target: T1, IL-2Rαβγ on human T cells (human, UniProt P01589 22-272; P14784 27-551; P31785 23-369); assay: cell-based or functional assay
T1 sequence (looked up) 1: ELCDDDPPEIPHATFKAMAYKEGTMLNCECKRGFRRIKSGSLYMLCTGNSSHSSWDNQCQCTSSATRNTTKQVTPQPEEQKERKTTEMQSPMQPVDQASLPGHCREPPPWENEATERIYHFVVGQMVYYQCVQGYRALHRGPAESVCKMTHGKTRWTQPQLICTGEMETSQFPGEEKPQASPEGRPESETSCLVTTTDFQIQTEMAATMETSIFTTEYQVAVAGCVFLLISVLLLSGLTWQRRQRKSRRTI
T1 sequence (looked up) 2: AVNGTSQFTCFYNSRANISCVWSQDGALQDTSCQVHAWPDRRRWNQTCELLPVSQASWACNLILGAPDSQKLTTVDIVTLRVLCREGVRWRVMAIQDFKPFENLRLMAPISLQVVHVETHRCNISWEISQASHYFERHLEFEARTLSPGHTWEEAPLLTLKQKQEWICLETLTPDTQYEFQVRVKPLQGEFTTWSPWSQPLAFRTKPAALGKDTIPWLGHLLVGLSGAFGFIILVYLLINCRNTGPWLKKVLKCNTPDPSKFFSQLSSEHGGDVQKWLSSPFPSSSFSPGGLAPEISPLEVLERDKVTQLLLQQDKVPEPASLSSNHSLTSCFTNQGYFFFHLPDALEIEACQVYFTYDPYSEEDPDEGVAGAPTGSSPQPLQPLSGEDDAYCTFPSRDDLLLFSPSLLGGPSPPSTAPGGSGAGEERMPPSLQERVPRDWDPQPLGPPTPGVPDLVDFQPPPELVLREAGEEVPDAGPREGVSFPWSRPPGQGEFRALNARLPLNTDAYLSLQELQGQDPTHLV
T1 sequence (looked up) 3: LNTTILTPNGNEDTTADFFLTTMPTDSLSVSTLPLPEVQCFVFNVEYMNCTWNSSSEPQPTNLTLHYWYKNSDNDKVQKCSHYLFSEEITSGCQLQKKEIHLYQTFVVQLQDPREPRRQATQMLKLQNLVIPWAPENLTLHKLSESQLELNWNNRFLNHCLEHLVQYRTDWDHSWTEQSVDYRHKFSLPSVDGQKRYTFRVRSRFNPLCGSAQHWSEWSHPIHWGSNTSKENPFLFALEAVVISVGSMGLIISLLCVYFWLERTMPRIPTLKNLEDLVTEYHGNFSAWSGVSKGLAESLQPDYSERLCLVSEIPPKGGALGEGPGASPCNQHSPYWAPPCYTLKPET

[2] = target: T2, IL-2Rβγ on human CD8+CD45RA+CD25low naïve T cells (human, UniProt P14784 27-551; P31785 23-369); assay: cell-based or functional assay
T2 sequence (looked up) 1: T1 sequence (looked up) 2
T2 sequence (looked up) 2: T1 sequence (looked up) 3

[3] = target: T3, IL-2Rα in human Fc fusion protein format (ACROBiosystems) (human, UniProt P01589 22-217, limits assumed); assay: Octet QKe (biolayer interferometry): IL-2Rα-human Fc on AHC sensors, serial dilutions of the IL-2 variant [cont.]
T3 construct: Bought reagent, captured on anti-Human IgG Fc Capture (AHC) sensors; also called CD25; not shown: human Fc
T3 sequence (looked up): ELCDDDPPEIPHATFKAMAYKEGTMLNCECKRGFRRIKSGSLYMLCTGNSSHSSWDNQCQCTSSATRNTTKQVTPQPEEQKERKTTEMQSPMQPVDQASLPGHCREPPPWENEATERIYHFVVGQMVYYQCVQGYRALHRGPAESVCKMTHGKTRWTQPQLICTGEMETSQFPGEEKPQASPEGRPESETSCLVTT
Description: IL-2Rα or IL-2Rβ in human Fc fusion protein format (ACROBiosystems) were captured on anti-Human IgG Fc Capture (AHC) sensors. […] Dissociation was detected following transfer of sensors into wells containing buffer alone. Data were collected and analyzed by Octet User Software. For analysis of the kinetics constants, 1:1 curve fitting model was used.

B1: Y31C-PEG20 + F42K (ligand)
chain: APTSSSTKKTQLQLEHLLLDLQMILNGINNCKNPKLTRMLTKKFYMPKKATELKHLQCLEEELKPLEEVLNLAQSKNFHLRPRDLISNINVIVLELKGSETTFMCEYADETATIVEFLNRWITFSQSIISTLT
modifications: maleimide-PEG 20K on Cys 31
notes: rhIL-2 (C125S) background with Y31C and F42K, PEGylated at Cys 31; not shown: His tag
EC50 of STAT5 phosphorylation, CD25+CD4+ T (IL-2Rαβγ) [1]: 1.65 µg/mL | EC50 of STAT5 phosphorylation, CD25-CD8+ naïve T (IL-2Rβγ) [2]: 1.6 µg/mL | binding result [3]: no binding (tested: not printed)
